In the DeepSol protein solubility set:

assay: soluble on expression in E. coli; label from the status in PepcDB or PDB records

| Sequence | soluble on expression in E. coli |
| --- | --- |
| MGSDKIHHHHHHMMRKYSDKKNAQTQNYYKDRFYHAPHTVKSDVNESVFKEDFEVLKTQVEILNSFVELDFWVIEIKKEDNVKTLQMLKTLGYLSFTEASAIDFIADKNGFEVFYQLLNLEKKLRVRIKTFVGVKERLQSVAHVFKGANWSEREIYDMFGIFIINHPNLKRILMPDDWFGHPLLKTYPLKGDEFARWYEIDKIFGKEYREVVGEEQRDSGFADDKDTLNFARLYHEVPKGGQKKEISFKQEYQEDEGVAFVKKVKRDEAKILEKRR | not soluble |
| MGSDKIHHHHHHMMSDASLPALTLPPALRRVLPAARWERVTEGESGAGVWRSTRFVVKVQSRTLYPASTLLQERERLRWFAGRLPVPQVVAYEDDGEQEYLAMTRLPGIAMSHPDAALHPERMVNLLARALRELHALPVRDCPFNMSLGVRLKLARERVAAGVVDESDFDEERQGQSAVQVFNQLARTRPAEEDLVVTHGDACLPNVIVQGEYVEGLIDLGRAGIADRHMDLALAWRSTRRNLGATYAGMLLDLYGRELVDEGKLAYYQLLDELF | not soluble |
| MGSDKIHHHHHHMMTQVPDTPQALYRALPSMDSLLADAVLAPLLQRYGKAAVKAALDSQLRTARELIAQERRLPAWCANPSLLNGYLVDQLSKDYSHSLKPVWNLTGTILHTNLGRAQQSEAAIRAVTSVMRYPTPLEFELAAGERGHRDNAISGLIQRLTGAEACCVVNNNAAAVLLMLSAVAAGKEVIVSRGELVEIGGAFRIPDIMRQAGCTLVEVGSTNRTHLKDYEQAITENTAAIMKVHTSNYHISGFTAAVEEARLGQLCRERGILLISDLGSGSLTDLRRFGLKQEPTPQAMLADGVDLVSFSGDKLLGGPQSGLIVGKQALINKLQSHPLKRALRCDKLILAALEATLIHYLNPETLDKELPIMAKFARSQAELRQIGERLQQALAPLFTPSYGLELVECQTQVGSGSQPDTFLPSIGLCFNAQEGGSLTLLEQHFKQAQRPVIGRMTQDQLRLDLRGIDDEAELLAELSTLGVQL | not soluble |
| MGSDKIHHHHHHMNALQFQKKLLSMQENMMNFALMLTANRDDAQDLMQDTTLKVLDNQEKFVDNINFKGWVLTVMRNIFINNYHKIVRTQTVVDQGVDLYNLDVVNDSGFDSPDGAYQIQEITKAINGLNNELKVPFSMFLSGYKYNEIADKLDVPLGTVKSRIFFARQELQKVLKDFRQG | not soluble |
| MGSDKIHHHHHHMNETPLRLLEMLTQTREDLWRAAQALTERGVTRIILTGSGTSYHGALTARTFMQRWCALPVDVCWPFMLDDETLARSGKALVVGISQGGGSLSTLAAMERARNVGHITASMAGVAPATIDRAADYILTVPCGEETAGAKTKGYHCTVLNLMLLALAVAGQQQRLDGEQRRSLLLRMEKTFNHLPALVTASQAWAQTNALALRDSADIRLTGPATLFGTVQEGALKMLETLRCPVSGYEFEEFIHGIYNAFNAQSALIMLDPQPDARQDRLAQILGEWTPSIYRIGPQVENNGLNLNFPFVNDEDFAVFEYIIPLQMLCAILPPQKGINPAIPKDPQFHQKMKSKQEI | not soluble |
| MGSDKIHHHHHHMNFIKEKHIEIVLNQTCLNPKLSVFLPVIKKTGVQLISVFHSQPYGMYGIKAFPKICNVFGVDKVGNLVDVLIHFAFKLKYGRYLKRMLQYSDKLVMLSDKFINEFLYFSGKKYAEKMLSISNPVTINGGGSEKKEKIVLFVGRISQEKGVDKILEVWRGICHEEKYKEWRLVIVGDGEKRKQMEKYAMDMELINYSFEGFQKPDGYYDKAKIFCMASAFEGFGLVLVEAMSYGVVPMAFNSFSNCSDIIDDDKNGILVTPFSINEYRKKIIELIENDEKWMKMSTCSINKSKEYSIECIGAKWLDLFYSLLNNKVT | not soluble |
| MGSDKIHHHHHHMNFTHKNLQRSYMAERTMVILDGGMGRELQRSGAPFRQPEWSALALSEAPEAVVGVHAAFIDAGAQVITSNSYAVVPFHIGEERFAAEGRQLAHIAGQLARHAADSGAHPVRVAGSLPPLFGSYRPDLFQPERVAEVLTPLLQGLAPHVDLWLAETQSSVAEVRAIHSHLPADGRPFWVSFTLQDEEVDEVPRLRSGEPVAEAIEAAVGLGVAAVLFNCSQPEVIGAAIDVARSVIERHNAEIAIGAYANAFPPQPKEATANDGLDELREDLDPPGYLAWAKDWRARGASMVGGCCGIGPEHIAELKRNLA | not soluble |
| MGSDKIHHHHHHMNHIGTREIATERLTLRRFEIEDAENMFYNWANDPEVTKYLTWPAHESVDTTETILKEWISKYDEKDFYQWAIELNDLEQPIGTISAIKTDERVESVEIGYCIGKRFWNNGYMTEALTAIIRFFINEVGAGRIWARHDTENPNSGKVMVAAGMDYEGTLRHAGFNNQGICDEAVYAKVRSAALDEEPEEETPEQQAVTTKVMGEDGVMRNVISDETMEYVGILAKLELSPEEAEAAKKDMADMLDYIDKLEELDTSGIEPMSHVFPVNNVFRDDVVTNGDGSEATLANAPVKKDGGFKVPKTIGE | not soluble |
| MGSDKIHHHHHHMNHYVEGKLLIIGGAEDKKGECKILKRFIQEAGGRESRVVVLTAATEMPEQVGSEYKELFENLGAAEVQVLDIAERVSANRESISQELQKATGIFFTGGDQLRITGILGGTRLGRTLHNLYQRGVIIAGTSAGASVMSDTMIVGGEAGTPKKDTLTMAPGLGLLHSVVVDQHFAQRGRIGRLLTAIAQNPYVLGVGIDEDTSILVYSDGHFTVVGSQTVTVVDASPTMASNVSEISPGQALVLTPVLMHILSDGYRFDLKRRAASLNETPSGG | not soluble |
| MGSDKIHHHHHHMNIAIDARGINLYRGTGIGTYTENLVRELLNIDEENSYTLYWYGNNYKDFIKSNTKINIVSKGCHSFFEKCYFPENIIKNSIEIYHVPQNGIGLDQNVSCIKVSTVHDLIPYIMPETVGKGYLLKFLKNMPFIIENSDAILTVSEYSKKDILKYFPINEDKIYVTPLAANYNYKPLSREHCKKFIEKNYSISDPFVLYLGGFSKRKNVRNLILAFADASKKLSKKHNLVIIGLCRDELESLKDLCRHLNISNEVIFTGYIGERFLPVFYNACELFVYPSLYEGFGLPVLEAMSCKTPVVTSNISSIPEIAGDSAVLINPLDTSELRDAILNILEDSKLKQKLSIEGFNRSRKFSWKNTSKKTLEAYSNIYNTFA | not soluble |
| MGSDKIHHHHHHMNIHYYLIINEQASSGNGRKVARKVIQQLKQQELKYTALYTDYAGHEKELTKELAETTLLPWSEDLDVSTFPILVVLGGDGTLHNVINSLLPYDSTIPLSYIPCGSGNDFARGVGLSRNIDKALHQILRTRRPKEIQTIHYVEANQEEIGLATNNVGLGLDAAIVEKTNESSSKKALNKFKLGSLSYISSIIHVFFRQKGFPILVEMNGKQYTFNRAFLCTVTNHPYFGGGVSIMPTANPRKAVVDLVVVERINIFKILWLIFLLLRQKQGKSKHFHHFQSSKIRIVSTIPQTIHADGEILGKRSIDMVYTTQKRLFWF | not soluble |
| MGSDKIHHHHHHMNILAPVSSVKEAEQLIAHGADELYCGIGLGALKNRPGNTDREIWINRRESGNANIPDLESLSLLVDHAHAQGKKVYLTLNQPGYAQDLYGEILAFVREVKKSCQVDAFIVADPGLIRMLIGKEPDMVIHVSSLAGVLNSSAVLFFKKLGVKRIVFPRYLEAETLKKIMDRAGEDLEYEVFILNDGCMFEESHCHVSHQFGGAFCHNPAWRYKLIPPEEGGILETWKLRNLKIAGETFEGNVEEWKRWQWLGIKNGGGYIGAKYPLGMCGLCTLPEYRDMGITSLKIVGREAPLSKKIKSVQLLKKVLDYQREEHLPDEVRDYARRTKGARLLCGSGYMCYER | not soluble |
| MGSDKIHHHHHHMNILNIYNEFDINNFDLSVDHYGSEKCDRGYSFGPTIRDNYVIHFILEGKGKLTINQHTLDLAAGDIFLLPKDISTFYQADLQMPWSYIWIGFSGSKAENILKQSSLFKRFYCHSGRSSKLFSQMMTIIQFANTPLTSVNELLMVGELYKLLAALIEEFPLSHLEESNSSTKAYVNQVKKIIHSQYGSSLRVNDIAKKLNLSRSYLYKIFRKSTNLSIKEYILQVRMKRSQYLLENPKLSIAEISNSVGFSDSLAFSKAFKNYFGKSPSKFRKEIQNN | not soluble |
| MGSDKIHHHHHHMNIRIGCSGWYYPHWAGKFYPSDLNKSEWFRYYAQKFDTVEINSTFYSFPNAARVRSWVKGSPENFVFSVKVNRTITHVKRLKDCDEEIGLFYEIIGSLGKMLGCVLFQFPPSFKYSHDNLIMIEKALDQRFCNVVEFRNISWFSEDARCDLEKSDLHVVAVSSERIPLWIKEDSVVYVRLHGNVNGYATDYNEEYLTDLAQRIIDVKPQSLYVYFNNDYSGYAPKNAIMLKSIINNLIL | not soluble |
| MGSDKIHHHHHHMNKKILIIDDNKMLGKLLAKKIQMTLDYEVDIAFGFAEAKELMNNDYFLAFVDLCLPDAPNGEVVDYVIEKKIPAIVLTASGDKATKEKFMDKDILDYIFKESETCIDEIISSIVKLNQYAKTKVIVAMSKLPERNEIKKILTQRQFNVLAAAHGEEAMSYLNDNNDVKLIIADVNMPVISGFELLTQVRERFSDDELGVILLGDHNDSFEANSFKNGVNEYLFKPLSKESFNCRLDRCLSYMDDKKFLSTYNVLDPVSGVKNYNALIDGIDDYFNEIATKDEEFAFAFLDIDNLQMINDEYGREVGDEVIKICANEIVNETKGRDLVGRYSAEKICILLKNISQERAIKIFSRIRVNIKKAGVLVNLDEVFFTASIGVVFGKSGDKIDSLADKASKILSQAKDNGKDRVEVCS | not soluble |
| MGSDKIHHHHHHMNKYIYLLAVVFGLSSCNDFLELSPTNKVIETDYYKTQEDLTEALVAAYDPLKWNAYNAYSSYELVSNIMSDDAETGGSTVSDQPQLQRVNDFTNWVTPTNLPEGLWGRSYEGVNRANIVIEKCPLLPEGTMSAELRDRYVAEAHFLRVFYYFQLWRFFGYIPYYETNLGLDDITTVPQLQPDEVYAKLIEDLDNNVIGKLPKVVPANEKGRATNGAAIAMKARIVLYQNDDTKMKEIASQLKELITDPAYQYDLIPDYKVLFDDEYEWCKESVFEVNYTEIGNSNDWAGKANQGNSDIIMLGARGLKDPNNVYVEGWGFAPVTKALNDAFLPDDPRKWTTIIDHEEFRAEGGTISSDVNQYTGYSVRKYHPRAGYSSTVGTEALNYKNNYRVIRFSDILLMASEALLRSGGSVGEAQDYYARVVKRAMGDDYKVPTVSLDNIYKERRYEFAMEGIRYWDLVRTNQAKDFIKGWDDTKKYLPIPQSEIDKSDGHLVQNPHF | not soluble |
| MGSDKIHHHHHHMNLKTTLFNTTYKFKDIKDVLAKANEKKSGDEMAGIAASGARERVAAKTVLADITLEELRNNPVVSYEKDEITRVIQDSVDEEQYKKIKALTVGEFREFLLENDEDKIKEIRDGLTSEMIAAVTKLMSNMDLVYAAQKICNTAKCNTTIGRRGTFSSRLQPNHPTDNPQGIMASLIDGISYGVGDAVIGLNPVADTIESVSDVLKVFNDFTRKWRIPTQNCVLAHITTQMEALKNGVPIDLMFQSIAGSEIANKDFGISVALLDEAYELMKTKKSSKGPNFMYFETGQGTELSSEGNNRADQLVMEARCYGLAKRYKPFLVNTVVGFIGPEYLYDGKQVIRAGLEDHFMGKLTGLSMGVDTCYTNHMKADQNDLENLAMLLLAANCNYLMGIPCGDDVMLMYQSSSYHDIATLREISDKRPIKEFEKRMEELGIMKNGKLTRNAGDPSIFM | not soluble |
| MGSDKIHHHHHHMNLRVLGKILLDEMRNGDVAIVEYSSSSPIHRLVWGEIILKYVDRYEFVIDDFFGIGDVMFRTYLRRISSPDEYTKIMEKTKNIKAIKIGPGKISYASKVEELPLTYNLSEFIKLYYPIIRDILAKSSKRVFFITLGLSQYLYLGEAKALETILLSRSVLPIEDWTSIYFLNTDVAPEKAVAALEEISPIVIQVRNNEILVKKI | not soluble |
